Numbering of substitutions follows the chain as printed.
B1: SVT20L (VHH)
VHH: QVQLQQSGGGLVQAGGSLRLSCAASGRTMSSYAMGWFRQAPGKQREFVAAISRSGGNTYYTDSVKGRFTISRDNAKNTLYLQMNSLKPEETAVYYCAADPNLMYESKWKYRALEAWGQGTLVTVSS
B2: SVT05L (VHH)
VHH: QVQLQESGGGLVQPGGSLRLSCSASGFSFTDDYGIGWFRSGPGKGREAVAPIADREAVAAIALSDGNTYYSASAKGRFTISRDNAKSTAYLQMNNLKPEDTATYYCAADFWGYGMSWPMATLWEYWGQGIQVTVSS
B3: SVT31L (VHH)
VHH: QVQLQESGGGSVQAGGSLTLSCAASEFSYNDYTIAWFRRAAGKGRVEDGEGVASITKSYDRAYDNRIHYADSVKGRFTISRDNAKNTVYLQMTSLNPSDTAVYYCALDITPPGGIGASLTEGFLFDYWGQGTQVTVSS
B4: SVT29L (VHH)
VHH: QVQLQESGGGLVQTGGSLTLSCRAYGRAFDNYHFGWFRQAPGKDREFVASISWKGGSTYRANFALGRFTSSVNRGESSVYLHMSGLTPEDTATYYCAAHDGGDWNYHTGMDYWGKGILVTVSS
B5: SVT25L (VHH)
VHH: QVQLQESGGGLVQAGGSLRLSCAASGRTISVYAMGWFRQAPGKQREFVAAISRSDNTYYTDSVKGRFTISRDNVKNTLYLQMNSLKPEETAVYYCAADPNLMYETKWKYRALEAWGQGTLVTVSS
B6: SVT20 (VHH)
VHH: B1 VHH
B7: SVT34 (VHH)
VHH: B1 VHH with Q6E, A14P, M29I, T69I, S85N
B8: SVT13 (VHH)
VHH: QVQLQESGGGLVQAGGSLRLSCAVSGTNFDDYAIGWFRQAPGKRREAVACISKTDGVTRYGNGVKGRFTISSDEARNTVFLQMNDLKDEDTAIYYCIGDFKSCGMGYKPIDHWGRGIQVTVSS
B9: SVT22 (VHH)
VHH: QVQLQESGGGLVQAGESLRLSCTASGISFDDYAIGWFRQAPGQQRKGVACISKADGRTDYLGSVKGRFTLSTDNTKNTVHLQMNNLKPEDTALYTCAAEYKSCGMGYKPIDYWGQGMQVTVSS
B10: SVT05 (VHH)
VHH: B2 VHH
B11: SVT08 (VHH)
VHH: B3 VHH with T19R, A23T, K57T, A70G, S94N, A106G
B12: SVT06 (VHH)
VHH: QVQLQESGGGSVQAGGSLRLSCTASELSYDDYTIAWFRRAAGEGRVEDGEGVASITKSYDRAYDNKINYGHSVKGRFTISRDNAKNTVYLQMTDLLPSDTAVYYCALDITPPGGVGASLTEGFLFDYWGQGTQVTVSS
B13: SVT31 (VHH)
VHH: B3 VHH
B14: SVT15 (VHH)
VHH: B4 VHH with T19R, Y25S, D30A, R60Y, N73D, G75A, H82Q
B15: SVT29 (VHH)
VHH: B4 VHH
B16: SVT16 (VHH)
VHH: B5 VHH with L11S, G16D, V31N, V74A, T105S
B17: SVT25 (VHH)
VHH: B5 VHH

Biological target: T1, tetanus neurotoxin (TeNT), authentic tetanus holotoxin (Clostridium tetani, UniProt P04958 2-1315)
Assay: GT1b-TeNT inhibition ELISA, EC at A450 0.59
T1 sequence (P04958 2-457 limits assumed, chain 1 of 2): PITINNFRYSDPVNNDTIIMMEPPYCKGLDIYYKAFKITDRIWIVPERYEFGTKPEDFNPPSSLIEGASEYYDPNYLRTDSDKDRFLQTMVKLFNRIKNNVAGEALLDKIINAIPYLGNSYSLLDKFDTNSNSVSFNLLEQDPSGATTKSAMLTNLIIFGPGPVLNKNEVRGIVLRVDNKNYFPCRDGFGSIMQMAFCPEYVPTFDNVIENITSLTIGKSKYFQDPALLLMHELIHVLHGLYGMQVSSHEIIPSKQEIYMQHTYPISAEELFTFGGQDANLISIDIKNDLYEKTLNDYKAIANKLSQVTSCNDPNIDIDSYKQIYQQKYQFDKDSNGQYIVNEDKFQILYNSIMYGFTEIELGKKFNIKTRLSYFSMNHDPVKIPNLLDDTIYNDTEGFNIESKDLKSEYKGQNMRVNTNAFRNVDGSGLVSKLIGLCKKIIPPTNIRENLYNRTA
T1 sequence (P04958 458-1315 limits assumed, chain 2 of 2): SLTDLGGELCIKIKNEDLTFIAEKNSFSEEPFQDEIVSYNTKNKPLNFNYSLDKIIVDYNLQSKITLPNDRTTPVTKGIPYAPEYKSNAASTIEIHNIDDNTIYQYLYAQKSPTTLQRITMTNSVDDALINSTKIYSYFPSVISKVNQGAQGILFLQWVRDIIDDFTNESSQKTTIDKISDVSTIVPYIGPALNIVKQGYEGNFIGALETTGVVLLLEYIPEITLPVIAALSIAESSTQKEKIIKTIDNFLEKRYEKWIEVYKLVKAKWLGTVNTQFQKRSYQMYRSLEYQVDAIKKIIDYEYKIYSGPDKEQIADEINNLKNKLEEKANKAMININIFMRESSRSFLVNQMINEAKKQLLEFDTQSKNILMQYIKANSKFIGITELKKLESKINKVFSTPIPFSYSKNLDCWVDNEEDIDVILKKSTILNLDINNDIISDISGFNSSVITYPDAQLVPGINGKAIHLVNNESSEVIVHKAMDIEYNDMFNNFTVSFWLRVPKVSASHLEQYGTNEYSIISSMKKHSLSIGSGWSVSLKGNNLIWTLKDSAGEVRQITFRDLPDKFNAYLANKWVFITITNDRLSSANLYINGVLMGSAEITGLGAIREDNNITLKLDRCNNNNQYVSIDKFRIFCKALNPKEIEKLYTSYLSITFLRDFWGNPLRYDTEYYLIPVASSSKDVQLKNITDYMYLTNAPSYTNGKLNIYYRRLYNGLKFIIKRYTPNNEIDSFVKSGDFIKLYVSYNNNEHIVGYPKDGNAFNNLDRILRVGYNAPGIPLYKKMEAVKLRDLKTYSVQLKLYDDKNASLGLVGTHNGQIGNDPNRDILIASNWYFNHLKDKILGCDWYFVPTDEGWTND

| Binder | concentration giving A450 of 0.59 [µg/mL] |
| --- | --- |
| B1 | 0.039 |
| B2 | > 1 |
| B3 | 0.986 |
| B4 | 0.114 |
| B5 | 0.133 |

Biological target: T1, tetanus neurotoxin (TeNT), authentic …
Assay: GT1b-TeNT inhibition ELISA, unlabelled binder

| Binder | minimal absorbance at 450 nm |
| --- | --- |
| B1 | 0.117 |
| B2 | 0.655 |
| B3 | 0.568 |
| B4 | 0.135 |
| B5 | 0.106 |

Biological target: T1, tetanus neurotoxin (TeNT), authentic …
Assay: ELISA, directly coated TeNT, unlabelled binder

| Binder | EC resulting in A450 0.2 [ng/mL] | maximal absorbance at 450 nm |
| --- | --- | --- |
| B1 | 1.2 | 1.54 |
| B2 | 0.51 | 1.29 |
| B3 | 2.4 | 1.32 |
| B4 | 2.6 | 1.52 |
| B5 | 3.6 | 1.56 |

Biological target: T2, recombinant tetanus toxin fragment C (rTTC) (Clostridium tetani, UniProt P04958 865-1315)
T2 sequence: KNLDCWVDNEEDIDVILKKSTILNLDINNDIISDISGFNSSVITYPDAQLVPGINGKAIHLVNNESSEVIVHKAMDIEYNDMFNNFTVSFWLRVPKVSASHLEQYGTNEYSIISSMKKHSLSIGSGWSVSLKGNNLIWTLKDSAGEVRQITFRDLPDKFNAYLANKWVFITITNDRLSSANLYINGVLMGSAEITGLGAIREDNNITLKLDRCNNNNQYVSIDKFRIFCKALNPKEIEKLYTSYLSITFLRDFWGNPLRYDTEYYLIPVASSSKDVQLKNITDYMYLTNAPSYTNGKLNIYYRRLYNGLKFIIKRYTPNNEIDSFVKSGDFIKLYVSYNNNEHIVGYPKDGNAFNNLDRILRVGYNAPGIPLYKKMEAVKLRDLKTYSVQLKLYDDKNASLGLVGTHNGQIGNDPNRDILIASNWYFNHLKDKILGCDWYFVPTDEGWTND
Assay: ELISA, directly coated rTTC, unlabelled binder

| Binder | maximal absorbance at 450 nm |
| --- | --- |
| B1 | 0.967 |
| B2 | 0.604 |
| B3 | 0.483 |
| B4 | 0.58 |
| B5 | 0.936 |

Biological target: T3, tetanus neurotoxin (TeNT), authentic tetanus holotoxin (Clostridium tetani, UniProt P04958 2-1315)
Assay: ELISA, directly coated TeNT, E. coli supernatant
T3 sequence (P04958 2-457 limits assumed, chain 1 of 2): as the sequence (P04958 2-457 limits assumed, chain 1 of 2) above
T3 sequence (P04958 458-1315 limits assumed, chain 2 of 2): as the sequence (P04958 458-1315 limits assumed, chain 2 of 2) above

| Binder | absorbance at 450 nm [A450] |
| --- | --- |
| B6 | 1.08 |
| B7 | 1.43 |
| B8 | 0.762 |
| B9 | 1.08 |
| B10 | 1.04 |
| B11 | 1.07 |
| B12 | 1.04 |
| B13 | 1.38 |
| B14 | 1.03 |
| B15 | 1.28 |
| B16 | 1.04 |
| B17 | 1.14 |

Biological target: T4, recombinant tetanus toxin fragment C (rTTC) (Clostridium tetani, UniProt P04958 865-1315)
T4 sequence: T2 sequence
Assay: ELISA, directly coated rTTC, E. coli supernatant

| Binder | absorbance at 450 nm [A450] |
| --- | --- |
| B6 | 0.165 |
| B7 | 0.16 |
| B8 | 0.128 |
| B9 | 0.138 |
| B10 | 0.108 |
| B11 | 0.13 |
| B12 | 0.105 |
| B13 | 0.218 |
| B14 | 0.099 |
| B15 | 0.111 |
| B16 | 0.151 |
| B17 | 0.211 |

Biological target: T1, tetanus neurotoxin (TeNT), authentic …
Assay: ELISA, directly coated TeNT, biotinylated binder

| Binder | EC resulting in A450 0.4 [ng/mL] | maximal absorbance at 450 nm |
| --- | --- | --- |
| B1 | 2.1 | 1.2 |
| B2 | 0.98 | 1.26 |
| B3 | 0.98 | 1.43 |
| B4 | 6.9 | 1.13 |
| B5 | 43 | 0.985 |

Biological target: T3, tetanus neurotoxin (TeNT), authentic …
Assay: ELISA, cAb-TT2 captured TeNT, E. coli supernatant

| Binder | absorbance at 450 nm [A450] |
| --- | --- |
| B6 | 0.685 |
| B7 | 0.483 |
| B8 | 0.165 |
| B9 | 0.299 |
| B10 | 0.548 |
| B11 | 0.51 |
| B12 | 0.683 |
| B13 | 1.09 |
| B14 | 0.68 |
| B15 | 0.868 |
| B16 | 0.736 |
| B17 | 0.427 |

Biological target: T3, tetanus neurotoxin (TeNT), authentic …
Assay: GT1b-TeNT inhibition ELISA (no SDA: 1.302, 1.257)

| Binder | absorbance at 450 nm [A450] |
| --- | --- |
| B6 | 0.132 |
| B7 | 0.117 |
| B8 | 0.196 |
| B9 | 0.137 |
| B10 | 0.985 |
| B11 | 0.746 |
| B12 | 0.72 |
| B13 | 0.105 |
| B14 | 0.19 |
| B15 | 0.152 |
| B16 | 0.12 |
| B17 | 0.139 |

Biological target: T1, tetanus neurotoxin (TeNT), authentic …
Assay: ELISA, TeNT captured with cAb-TT2, unlabelled binder

| Binder | EC resulting in A450 0.15 [ng/mL] | maximal absorbance at 450 nm |
| --- | --- | --- |
| B1 | 3.1 | 0.327 |
| B2 | 0.86 | 0.375 |
| B3 | 4.3 | 0.27 |
| B4 | 6.3 | 0.429 |
| B5 | 6.4 | 0.362 |

Biological target: T1, tetanus neurotoxin (TeNT), authentic …
Assay: ELISA, TeNT captured with cAb-TT2, biotinylated binder

| Binder | EC resulting in A450 0.2 [ng/mL] | maximal absorbance at 450 nm |
| --- | --- | --- |
| B1 | 4.5 | 0.535 |
| B2 | 1.7 | 0.622 |
| B3 | 1.5 | 1.03 |
| B4 | 14 | 0.596 |
| B5 | 84 | 0.302 |
